What is called Kd is the equilibrium constant for the complex coming apart. Read a low Kd as a tighter complex.

This is an account of results in article doi:10.1101/2022.07.21.500383 (bioRxiv, 2022).

Holding throughout (test): ITC
Experiment [1] has as its target T1, IL-11Δ10/IL-11Rα_(D1-D3) binary complex (human, UniProt P20809 32-199; Q14626 23-317).
T1 sequence 1: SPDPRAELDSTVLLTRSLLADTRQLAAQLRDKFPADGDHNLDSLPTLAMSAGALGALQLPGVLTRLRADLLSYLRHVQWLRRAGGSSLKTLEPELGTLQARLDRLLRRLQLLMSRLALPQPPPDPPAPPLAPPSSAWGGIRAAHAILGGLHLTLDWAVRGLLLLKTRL
T1 sequence 2: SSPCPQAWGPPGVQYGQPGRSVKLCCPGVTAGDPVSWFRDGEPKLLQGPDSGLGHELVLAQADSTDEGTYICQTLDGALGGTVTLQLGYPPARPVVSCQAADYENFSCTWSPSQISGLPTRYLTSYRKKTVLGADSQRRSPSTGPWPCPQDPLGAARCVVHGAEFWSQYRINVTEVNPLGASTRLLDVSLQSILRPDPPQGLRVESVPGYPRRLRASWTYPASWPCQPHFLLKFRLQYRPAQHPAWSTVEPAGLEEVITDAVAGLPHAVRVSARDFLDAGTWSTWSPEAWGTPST

The target of experiment [2] is IL-11_(Δ10/PAIDY)/IL-11Rα_(D1-D3) binary complex (human) (UniProt P20809).
The target in experiment [3] is IL-11_(Δ10/W147A)/IL-11Rα_(D1-D3) binary complex (human) (UniProt P20809).
The target in experiment [4] is IL-11_(Δ10/Mutein)/IL-11Rα_(D1-D3) binary complex (human) (UniProt P20809).

B1: gp130EC (complete extracellular domains of gp130, D1-D6) (receptor, human, UniProt P40189 23-619, looked up)
chain: ELLDPCGYISPESPVVQLHSNFTAVCVLKEKCMDYFHVNANYIVWKTNHFTIPKEQYTIINRTASSVTFTDIASLNIQLTCNILTFGQLEQNVYGITIISGLPPEKPKNLSCIVNEGKKMRCEWDGGRETHLETNFTLKSEWATHKFADCKAKRDTPTSCTVDYSTVYFVNIEVWVEAENALGKVTSDHINFDPVYKVKPNPPHNLSVINSEELSSILKLTWTNPSIKSVIILKYNIQYRTKDASTWSQIPPEDTASTRSSFTVQDLKPFTEYVFRIRCMKEDGKGYWSDWSEEASGITYEDRPSKAPSFWYKIDPSHTQGYRTVQLVWKTLPPFEANGKILDYEVTLTRWKSHLQNYTVNATKLTVNLTNDRYLATLTVRNLVGKSDAAVLTIPACDFQATHPVMDLKAFPKDNMLWVEWTTPRESVKKYILEWCVLSDKAPCITDWQQEDGTVHRTYLRGNLAESKCYLITVTPVYADGPGSPESIKAYLKQAPPSKGPTVRTKKVGKNEAVLEWDQLPVDVQNGFIRNYTIFYRTIIGNETAVNVDSSHTEYTLSSLTSDTLYMVRMAAYTDEGGKDGPEFTFTTPKFAQGEIE
modifications: N-linked glycans at N21, N61, N135 (visible in the structures)
For the molecule B1, the dH in experiment [1] was -4.78 kcal/mol.

B2: gp130_(D2-D3) (receptor, human, UniProt P40189 123-325, looked up)
chain: GLPPEKPKNLSCIVNEGKKMRCEWDGGRETHLETNFTLKSEWATHKFADCKAKRDTPTSCTVDYSTVYFVNIEVWVEAENALGKVTSDHINFDPVYKVKPNPPHNLSVINSEELSSILKLTWTNPSIKSVIILKYNIQYRTKDASTWSQIPPEDTASTRSSFTVQDLKPFTEYVFRIRCMKEDGKGYWSDWSEEASGITYEDR
As to B2, the Kd in experiment [2] was determined as 60 nM; in experiment [3] it was 130 nM; in experiment [1] it was 380 nM. In experiment [1], this molecule displayed a dH of 6.45 kcal/mol.

B3: gp130_(D1-D3) (cytokine binding domains of gp130) (receptor, human)
chain: ELLDPCGYISPESPVVQLHSNFTAVCVLKEKCMDYFHVNANYIVWKTNHFTIPKEQYTIINRTASSVTFTDIASLNIQLTCNILTFGQLEQNVYGITIISGLPPEKPKNLSCIVNEGKKMRCEWDGGRETHLETNFTLKSEWATHKFADCKAKRDTPTSCTVDYSTVYFVNIEVWVEAENALGKVTSDHINFDPVYKVKPNPPHNLSVINSEELSSILKLTWTNPSIKSVIILKYNIQYRTKDASTWSQIPPEDTASTRSSFTVQDLKPFTEYVFRIRCMKEDGKGYWSDWSEEASGITYEDR
modifications: N-linked glycans at N21, N61, N135 (visible in the structures)
As to B3, the Kd in experiment [4] worked out at 55 nM; in experiment [2] it was 20 nM; in experiment [1], 3 nM. Moreover, in experiment [1], the dH was -8.13 kcal/mol.
